Test results reported in patent US20170327598A1, “SINGLE DOMAIN ANTIBODIES DIRECTED AGAINST INTRACELLULAR ANTIGENS” (SINGH MOLECULAR MEDICINE, LLC, priority 2014, published 2017).
“And” between values parts separate entries of the source, which are not always exact repeats. Equal values may be shown once.

What was measured:
[1] = test system: PANC-1 cells; assay: MTT proliferation assay, PANC-1; format: cell-based, human; conditions: for Mean Absorbance (570 nM) ± S.E.: single experiments 1-3
[2] = target: T1, endogenous STAT3 (Homo sapiens, UniProt P40763); assay: Immunoprecipitation of endogenous STAT3 from MDA-MB-231 lysate, Western blot; format: binding; conditions: FIG. 3
T1 construct: endogenous STAT3 immunoprecipitated with all sdAbs tested at varying amounts; endogenous in cells
Procedure: The specificity of STAT3 sdAbs was assayed in human breast cancer cells. […] The cells were then disrupted in freshly prepared ice-cold lysis buffer (20 mM HEPES, pH 7.9, 400 mM NaCl, 0.1% NP-40, 10% glycerol, 1 mM sodium vanadate, 1 mM sodium fluoride, 1 mM dithiothreitol, 1 mM phenylmethylsulfonyl fluoride, 10 μg/mL aprotinin, 10 μg/mL leupeptin) for 45 minutes on ice. Lysates were then centrifuged, the supernatant collected, and protein concentration was determined using a modified Lowry method (Bio Rad, Hercules, Calif.). Total protein (1 mg) was incubated with 1.5 mg of Dynabeads (Invitrogen) with sdAbs against STAT3, a positive control (STAT3, cat#SC-482, Santa Cruz Biotechnology, Dallas, Tex.), or negative control (STAT-1, cat#9172, Cell Signaling, Danvers, Mass.) for 1 hour at 4° C. Beads were then washed. Following the final wash, 60 μl of lysis buffer was added, and the resulting supernatant was subject to Western blot analysis. Briefly, samples were separated on 10% polyacrylamide gels and transferred to a nitrocellulose membrane. The membranes were blocked, then incubated with appropriate primary and secondary antibodies. Anti-STAT3 antibody, used as a positive control, was from Cell Signaling (Cat#4904, Danvers, Mass.). The chemiluminescence reaction was performed using the ECL system from Santa Cruz Biotechnology (Dallas, Tex.).

[3] = test system: MDA-MB-231 cells; assay: MTT proliferation assay, MDA-MB-231; format: cell-based, human
[4] = test system: rabbit anti-llama biotinylated antibody or his-probe (H-3) biotin labeled antibody; assay: ELISA with sdAbs coated, binding of secondary antibodies (Experiments 2 and 3)
Procedure: Two assays (Experiment 2 and 3) were performed to assess the binding of the secondary antibody to the sdAbs. A similar ELISA method was utilized except the sdAbs were directly coated onto the assay plate at a concentration of 1 μg/mL. Plates were incubated overnight at 2-8° C. After the incubation, plates were washed (3×) and blocked (3% BSA in PBS) for at least one hour at room temperature.
After removal of the blocking buffer and washing (3×), the secondary antibodies, either rabbit anti-llama biotinylated antibody or his-probe (H-3) biotin labeled antibody at was then added at a 1:5,000 dilution to each well and incubated with shaking for at least one hour at room temperature. Only the rabbit anti-llama biotinylated antibody was used in Experiment 2. Both antibodies were run in parallel in Experiment 3.
After the incubation with secondary antibody, the plates were again washed (3×) and HRP at a 1:50,000 dilution was added to each well. Plates were incubated with shaking for at least one hour at room temperature. One last wash (3×) was performed followed by the addition of TMB substrate and plates were incubated at room temperature. For the anti-llama biotinylated antibody stop solution was added to halt the colorimetric reaction at 10 minutes. The his-probe (H-3) biotin labeled antibody was allowed to incubate for 20 minutes prior to stopping. The absorbance at 450 nm was measured as before.

[5] = test system: GloResponse SIE-luc2P/HEK 293 cells; assay: BCA protein concentration of reporter cells run in parallel; format: cell-based
[6] = test system: STAT3 reporter, induction by interleukin-6; assay: STAT3 reporter GloResponse SIE-luc2P/HEK293 cell assay, IL-6 induction; format: cell-based;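 further: IL-6 added at 40 ng/mL (EC80) for roughly one day after pretreatment, luciferase luminescence read with Bio-Glo reagent, untreated +IL6 wells serve as control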
[7] = MDA-MB-231, 5 days of treatment, 0.5 μg/ml
[8] = MDA-MB-231, 5 days of treatment, 1.0 μg/ml
[9] = MDA-MB-231, 5 days of treatment, 10.0 μg/ml
[10] = MDA-MB-231, 5 days of treatment, 100.0 μg/ml
[11] = 24 Hour Treatment Prior to IL6 Induction, high conc.: VHH13 55.8 μg/mL, VHH14 84.3 μg/mL, BB1608 4.16 μM, VHH69 50.5 μg/mL
[12] = 24 Hour Treatment Prior to IL6 Induction, low conc.: VHH13, VHH14, VHH69 10 μg/mL, BB1608 2 μM
[13] = 48 Hour Treatment Prior to IL6 Induction, high conc.: VHH13 55.8 μg/mL, VHH14 84.3 μg/mL, BB1608 4.16 μM, VHH69 50.5 μg/mL
[14] = 48 Hour Treatment Prior to IL6 Induction, low conc.: VHH13, VHH14, VHH69 10 μg/mL, BB1608 2 μM

T1 sequence (P40763 whole entry): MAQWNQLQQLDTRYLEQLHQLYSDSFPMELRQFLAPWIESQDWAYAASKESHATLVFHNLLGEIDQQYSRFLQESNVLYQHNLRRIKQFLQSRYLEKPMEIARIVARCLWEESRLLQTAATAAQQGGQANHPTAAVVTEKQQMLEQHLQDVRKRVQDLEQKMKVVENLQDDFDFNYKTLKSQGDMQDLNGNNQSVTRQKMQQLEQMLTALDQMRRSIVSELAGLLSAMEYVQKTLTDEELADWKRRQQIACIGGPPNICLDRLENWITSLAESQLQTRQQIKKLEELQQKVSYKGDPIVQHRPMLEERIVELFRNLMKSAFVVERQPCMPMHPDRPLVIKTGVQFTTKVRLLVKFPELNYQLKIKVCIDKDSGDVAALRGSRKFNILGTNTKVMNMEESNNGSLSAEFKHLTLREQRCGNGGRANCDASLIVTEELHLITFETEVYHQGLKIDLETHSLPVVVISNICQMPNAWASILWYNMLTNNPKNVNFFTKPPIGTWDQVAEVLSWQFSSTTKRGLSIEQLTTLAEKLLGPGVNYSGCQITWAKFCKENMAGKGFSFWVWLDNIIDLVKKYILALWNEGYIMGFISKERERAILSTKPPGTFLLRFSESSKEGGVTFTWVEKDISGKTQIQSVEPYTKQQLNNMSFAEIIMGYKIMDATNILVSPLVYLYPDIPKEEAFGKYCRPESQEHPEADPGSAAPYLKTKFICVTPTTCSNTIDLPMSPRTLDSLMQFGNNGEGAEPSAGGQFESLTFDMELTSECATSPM

B1: H.VHH14: anti-STAT3 sdAb VHH14 (SEQ ID NO:4), presumably the form produced in mammalian cells (protein)
VHH: QVQLVESGGGSVQAGGSLRLSCVASTYTGCMGWFRQAPGKEREGVAALSSRGFAGHYTDSVKGRFSISRDYVKNAVYLQMNTVKPEDAAMYYCAAREGWECGETWLDRTAGGHTYWGQGTLVTVSS
modifications: Camelid
Mean Absorbance (570 nM) ± S.E., Overall Mean ([1]; PANC-1, Day 3, 10.0 μg/ml): 1.089 ± 0.085
Mean Absorbance (570 nM) ± S.E. ([1]; PANC-1, Day 3, 10.0 μg/ml): 0.920 ± 0.133 and 1.183 ± 0.114 and 1.163 ± 0.044
Mean Absorbance (570 nM) ± S.E., Overall Mean ([1]; PANC-1, Day 3, 100 μg/ml): 0.906 ± 0.054
Mean Absorbance (570 nM) ± S.E. ([1]; PANC-1, Day 3, 100 μg/ml): 0.808 ± 0.239 and 0.993 ± 0.088 and 0.916 ± 0.088
Mean Absorbance (570 nM) ± S.E., Overall Mean ([1]; PANC-1, Day 5, 10.0 μg/ml): 1.368 ± 0.247
Mean Absorbance (570 nM) ± S.E. ([1]; PANC-1, Day 5, 10.0 μg/ml): 1.859 ± 0.033 and 1.165 ± 0.015 and 1.081 ± 0.103
Mean Absorbance (570 nM) ± S.E., Overall Mean ([1]; PANC-1, Day 5, 100 μg/ml): 0.754 ± 0.333
immunoprecipitation of endogenous STAT3 [2]: immunoprecipitated
% Inhibition ([3]; MDA-MB-231, 3 days of treatment, 1.0 μg/ml): 0.5%
% Inhibition [3, 7]: 9.5%
% Inhibition [3, 8]: 4.9%
% Inhibition [3, 9]: 18.2%
% Inhibition [3, 10]: 18.9%
Mean Absorbance (570 nM) ± S.E. ([3]; MDA-MB-231, Day 3, 0.5 μg/ml): 0.485 ± 0.040
Mean Absorbance (570 nM) ± S.E. ([3]; MDA-MB-231, Day 3, 1.0 μg/ml): 0.402 ± 0.017
Mean Absorbance (570 nM) ± S.E. ([3]; MDA-MB-231, Day 3, 10.0 μg/ml): 0.588 ± 0.020
Mean Absorbance (570 nM) ± S.E. ([3]; MDA-MB-231, Day 3, 100 μg/ml): 0.416 ± 0.030
Mean Absorbance (570 nM) ± S.E. ([3]; MDA-MB-231, Day 5, 0.5 μg/ml): 0.890 ± 0.021
Mean Absorbance (570 nM) ± S.E. ([3]; MDA-MB-231, Day 5, 1.0 μg/ml): 0.935 ± 0.037
Mean Absorbance (570 nM) ± S.E. ([3]; MDA-MB-231, Day 5, 10.0 μg/ml): 0.804 ± 0.015
Mean Absorbance (570 nM) ± S.E. ([3]; MDA-MB-231, Day 5, 100 μg/ml): 0.797 ± 0.010

B2: Anti-STAT3 VHH14: second anti-STAT3 single domain antibody, SEQ ID NO:4 (protein)
VHH: QVQLVESGGGSVQAGGSLRLSCVASTYTGCMGWFRQAPGKEREGVAALSSRGFAGHYTDSVKGRFSISRDYVKNAVYLQMNTVKPEDAAMYYCAAREGWECGETWLDRTAGGHTYWGQGTLVTVSS
modifications: Camelid
immunoprecipitation of endogenous STAT3 [2]: immunoprecipitated
OD450 Values ([4]; His-probe (H-3), Experiment 3, stored 1:100 dilution of sdAb): 3.416
OD450 Values ([4]; Rabbit anti-Llama Secondary Antibody, Experiment 2, sdAb coated at 1 μg/mL): 2.813
OD450 Values ([4]; Rabbit anti-Llama Secondary Antibody, Experiment 3, stored 1:100 dilution of sdAb): 2.439
Protein concentration [5, 11]: 270
Protein concentration [5, 12]: 189
Protein concentration [5, 13]: 229
Protein concentration [5, 14]: 216
% Inhibition ([3]; MDA-MB-231, 3 days of treatment, 10.0 μg/ml): 23.1%
% Inhibition ([3]; MDA-MB-231, 3 days of treatment, 100.0 μg/ml): 57.0%
Overall Average % Inhibition ([3]; MDA-MB-231, 3 days, 10.0 μg/ml): 26.2%
Mean Growth Inhibition ([3]; MDA-MB-231, 3 days, 10.0 μg/ml, single experiments 1-4, listed as B.VHH14): 23.1% and 20.0% and 38.5% and 23.3%
Overall Average % Inhibition ([3]; MDA-MB-231, 3 days, 100 μg/ml): 55.7%
Mean Growth Inhibition ([3]; MDA-MB-231, 3 days, 100 μg/ml, single experiments 1-4, listed as B.VHH14): 57.0% and 42.8% and 62.3% and 60.6%
% Inhibition [3, 7]: 0%
% Inhibition [3, 8]: 0%
% Inhibition [3, 9]: 5.5%
% Inhibition [3, 10]: 18.9%
Overall Average % Inhibition ([3]; MDA-MB-231, 5 days, 10.0 μg/ml): 14.9%
Overall Average % Inhibition ([3]; MDA-MB-231, 5 days, 100 μg/ml): 38.6%
Mean Absorbance (570 nM) ± S.E. ([3]; MDA-MB-231, Day 3, 0.5 μg/ml): 0.666 ± 0.022
Mean Absorbance (570 nM) ± S.E. ([3]; MDA-MB-231, Day 3, 1.0 μg/ml): 0.644 ± 0.045
Mean Absorbance (570 nM) ± S.E. ([3]; MDA-MB-231, Day 3, 10.0 μg/ml): 0.456 ± 0.048
Mean Absorbance (570 nM) ± S.E. ([3]; MDA-MB-231, Day 3, 100 μg/ml): 0.255 ± 0.005
Mean Absorbance (570 nM) ± S.E. ([3]; MDA-MB-231, Day 5, 0.5 μg/ml): 0.733 ± 0.038
Mean Absorbance (570 nM) ± S.E. ([3]; MDA-MB-231, Day 5, 1.0 μg/ml): 0.794 ± 0.023
Mean Absorbance (570 nM) ± S.E. ([3]; MDA-MB-231, Day 5, 10.0 μg/ml): 0.640 ± 0.011
Mean Absorbance (570 nM) ± S.E. ([3]; MDA-MB-231, Day 5, 100 μg/ml): 0.549 ± 0.023
Mean Absorbance (570 nM) ± S.E., Overall Mean ([3]; Table 6, MDA-MB-231, Day 3, 10.0 μg/ml): 0.504 ± 0.021
Mean Absorbance (570 nM) ± S.E. ([3]; Table 6, MDA-MB-231, Day 3, 10.0 μg/ml, single experiments 1-4, listed as B.VHH14): 0.456 ± 0.048 and 0.499 ± 0.018 and 0.502 ± 0.048 and 0.559 ± 0.041
Mean Absorbance (570 nM) ± S.E., Overall Mean ([3]; Table 6, MDA-MB-231, Day 3, 100 μg/ml): 0.302 ± 0.043
Mean Absorbance (570 nM) ± S.E. ([3]; Table 6, MDA-MB-231, Day 3, 100 μg/ml, single experiments 1-4, listed as B.VHH14): 0.255 ± 0.005 and 0.357 ± 0.019 and 0.308 ± 0.021 and 0.287 ± 0.021
Mean Absorbance (570 nM) ± S.E., Overall Mean ([3]; Table 7, MDA-MB-231, Day 5, 10.0 μg/ml): 0.688 ± 0.131
Mean Absorbance (570 nM) ± S.E., Overall Mean ([3]; Table 7, MDA-MB-231, Day 5, 100 μg/ml): 0.475 ± 0.0690
Average RLU [6, 11]: 496624 RLU
Average RLU with Media Blank [6, 11]: 496598 RLU
Luminescence (RLU), single wells [6, 11]: 465649 RLU and 520343 RLU and 503880 RLU
Average RLU [6, 12]: 214828 RLU
Average RLU with Media Blank [6, 12]: 214803 RLU
Luminescence (RLU), single wells [6, 12]: 218125 RLU and 203210 RLU and 223150 RLU
Average RLU [6, 13]: 480595 RLU
Average RLU with Media Blank [6, 13]: 480562 RLU
Luminescence (RLU), single wells [6, 13]: 494706 RLU and 488307 RLU and 458771 RLU
Average RLU [6, 14]: 232537 RLU
Average RLU with Media Blank [6, 14]: 232504 RLU
Luminescence (RLU), single wells [6, 14]: 241785 RLU and 236843 RLU and 218982 RLU
effect on IL-6 induction of STAT3 reporter ([6]; 24 hours and 48 hours treatment prior to IL-6): enhancement of the IL-6 induction
